This note sets out measurements from paper PMC8179113 (Cell, 2021).

For this assay, the target named is SARS-CoV-2 spike receptor binding domain (SARS-CoV-2, UniProt P0DTC2). The assay is described as follows: cryo-EM structure.

B1: REGN10985 Fab (Fab, V domains shown)
VH: EVQLVESGGGLVQPGRSLRLSCAASGFTFDDYAMHWVRQAPGKGLEWVSGISWNRGSIGYADSVKGRFTISRDNAKNSLYLQMSSLRAEDTALYYCAKDGERWDSVVVPSARNGMDVWGQGTTVTVSS
VL: QSVLTQPPSVSGAPGQRVTISCTGSSSNIGAGYDVHWYQQLPGTAPKLLIYGNSNRPSGVPDRFSGSKSGTSASLAITGLQAEDEADYYCQSYDSSLSGSYVFGTGTKVTVL
Take B1: the binding result is reported as “binds”.

B2: REGN10989 Fab (Fab, V domains shown)
VH: QVQLVQSGAEVKKPGASVKVSCKASGYIFTGYYMHWVRQAPGQGLEWMGWINPNSGGANYAQKFQGRVTLTRDTSITTVYMELSRLRFDDTAVYYCARGSRYDWNQNNWFDPWGQGTLVTVSS
VL: QSALTQPASVSGSPGQSITISCTGTSSDVGTYNYVSWYQQHPGKAPKLMIFDVSNRPSGVSDRFSGSKSGNTASLTISGLQAEDEADYYCSSFTTSSTVVFGGGTKLTVL
Take B2: the binding result is given as “binds”.
